Source: patent US20170088602A1 (Bristol-Myers Squibb, published 2017)

T1: human myostatin (mature, recombinant; R&D Systems) (human, UniProt O14793 267-375)
T1 sequence: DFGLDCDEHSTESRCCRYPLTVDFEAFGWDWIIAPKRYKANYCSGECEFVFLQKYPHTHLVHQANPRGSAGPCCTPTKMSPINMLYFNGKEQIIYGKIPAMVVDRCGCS

T2: human Activin A (R&D Systems) (human, UniProt P08476 311-426)
T2 sequence (looked up): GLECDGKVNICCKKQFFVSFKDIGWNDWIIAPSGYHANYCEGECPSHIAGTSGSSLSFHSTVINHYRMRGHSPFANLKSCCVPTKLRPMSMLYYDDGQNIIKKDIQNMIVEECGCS

B1: ActRIIb-Fc (R&D Systems) (Fc fusion, human, UniProt Q13705 19-134, looked up, not shown: a dimerising Fc or GST)
chain: SGRGEAETRECIYYNANWELERTNQSGLERCEGEQDKRLHCYASWRNSSGTIELVKKGCWLDDFNCYDRQECVATEENPQVYFCCCEGNFCNERFTHLPEAGGPEVTYEPPPTAPT
modifications: Alexa Fluor 647 label in the HTRF assay
notes: also called rhActRIIb-Fc; Human Activin RIIB Fc Chimera
B2: human BMP-11 (GDF-11; R&D Systems) (ligand, UniProt O95390 299-407, looked up)
chain: NLGLDCDEHSSESRCCRYPLTVDFEAFGWDWIIAPKRYKANYCSGQCEYMFMQKYPHTHLVQQANPRGSAGPCCTPTKMSPINMLYFNDKQQIIYGKIPGMVVDRCGCS

Experiments:
[1] = biological target: T1, human myostatin (mature, recombinant; …); assay: cell-based or functional assay
[2] = biological target: T1, human myostatin (mature, recombinant; …); assay: competitive HTRF, alanine scan
[3] = biological target: T1, human myostatin (mature, recombinant; …); assay: HTRF competition binding assay, alanine mutant
[4] = biological target: T2, human Activin A (R&D Systems); assay: SPR format A set-up
Source text: (§1) Anti-human Fc antibody (Biacore/GE) was immobilized on a Biacore CM5 chip via NHS/EDC coupling according to the manufacturer's instructions. […] A concentration range of anti-myostatin Adnectin was applied across all flow cells in HBSP running buffer. Regeneration of the chip surface between cycles was accomplished with two 30 second pulses of 3M MgCl₂. Kinetic traces of reference-subtracted sensorgrams were fit to a 1:1 binding model using Biaevaluation software.

[5] = biological target: T1, human myostatin (mature, recombinant; …); assay: competitive ELISA: 10 nM myostatin preincubated with soluble ActRIIb-Fc, then binding to plate-coated ActRIIb-Fc detected with biotinylated anti-myostatin polyclonal; % competition
Method: Competitive ELISA: Competitive binding assays to evaluate the ability of anti-myostatin Adnectins to compete with the ActRIIB receptor binding to myostatin were carried out using competitive ELISA. Nunc Maxisorp plates were coated with 2 μg/mL ActRIIb-Fc (R&D Systems) in 0.2M sodium carbonate pH 9.6 buffer overnight at 4° C. After washing with PBS-T (PBS containing 0.05% Tween-20), wells were blocked with OptEIA buffer (BD Biosciences) for 1 h at 25° C. with shaking. Myostatin (10 nM; R&D Systems) was preincubated with a concentration range of Adnectin or ActRIIb-Fc competitor (0.2 pM to 1 μM) in OptEIA buffer for 1 h at 25° C. with shaking. The blocked and coated assay plate was washed with PBS-T, and then myostatin/competitor mixtures were added and incubated for 30 min at 25° C. with shaking. The assay plate was washed with PBS-T, after which bound myostatin was detected with 1:1000 biotinylated goat anti-myostatin polyclonal (R&D Systems) diluted in OptEIA, for 1 h at 25° C. with shaking. After washing with PBS-T, 1:5000 Streptavidin-HRP (Thermo/Pierce) diluted in OptEIA was added, followed by incubation for 30 min at 25° C. with shaking. The assay plate was developed with TMB (BD Biosciences), quenched with 2N sulfuric acid, and absorbance read at A450.

[6] = biological target: T1, human myostatin (mature, recombinant; …); assay: SPR format B, 37C
Method: (§2) A concentration range of anti-myostatin Adnectins was applied in HBSP running buffer. Regeneration of the chip surface between cycles was accomplished with 60 seconds of 10-50 mM NaOH. Kinetic traces of reference-subtracted sensorgrams were fit to a 1:1 binding model using Biaevaluation software. For Fc-formatted Adnectins, interaction kinetics are driven by avidity of bivalent Fc and dimeric myostatin even at low immobilization density. The data shown in Table 12 indicate that some of the Adnectins run in this SPR format bind myostatin and BMP-11 and also activin with similar affinities.

[7] = biological target: B2; assay: SPR format B, 37C
Method: as §2

[8] = biological target: T2, human Activin A (R&D Systems); assay: SPR format B, 37C
Method: as §2

[9] = biological target: T1, human myostatin (mature, recombinant; …); assay: cell-based or functional assay; remark: listed apart in the source
[10] = biological target: B2; assay: cell-based or functional assay
[11] = biological target: T2, human Activin A (R&D Systems); assay: cell-based or functional assay
[12] = biological target: T1, human myostatin (mature, recombinant; …); assay: competitive HTRF (1889E01/myostatin/ActRIIb-Fc sandwich)
Source text: An HTRF assay was used to measure the binding affinities of anti-myostatin Adnectins to myostatin. […] The Eu-W 1024 labeled Streptavidin is used to bind biotinylated 1889E01. […] In the presence of a competitive Adnectin, the HTRF signal decreases.

[13] = biological target: T1, human myostatin (mature, recombinant; …); assay: KinExA, solution phase, global analysis
Method: The affinities of PRD-1177 and ATI-1338 were also measured using the same assay format. Triplicate titrations of PRD-1177 were performed with myostatin at a monomer concentration of 1 nM (n=2) and 0.8 nM (n=1). Triplicate titrations of ATI-1338 were performed with myostatin at a monomer concentration of 5 nM (n=1), 1.6 nM (n=1), and 1.4 nM (n=1).

ActRIIb-Fc (R&D Systems) = biological target: B1; assay: SPR format A set-up
Source text: as §1

Kd [6] [nM] | Kd [7] [nM] | Kd [8] [nM] | ARE-luciferase IC50 [9] [nM] | ARE-luciferase IC50 [10] [nM] | ARE-luciferase IC50 [11] [nM] | IC50 [12] [nM] | Binder | further results
– | – | – | – | – | – | – | 3116_A06 R56A (designed binder) MGVSDVPRDLEVVAATPTSLLISWSLPHQGKANYYRITYGETGGNSPVQEFTVPGAGVTATISGLKPGVDYTITVYAVTVTDTGYLKYKPISINYRTEIDKPSQHHHHHH | Myostatin ARE-luc IC50 [1]: > 100 nM; IC50 [2]: 55 nM; IC50 [3]: > 100 nM
– | – | – | – | – | – | – | B1 | binding result [4]: binds; IC50 (read off the curve) [5]: ~1 nM
3.6 | 6.9 | 6.5 | 0.28 | 6 | > 1000 | 0.28 | ATI-1339 [40K 4-branch PEG] (designed binder, 40K 4-branch PEG on the Cys of the EGSGC tail, cysteine mutant of 2987_H07) MGVSDVPRDLEVVAATPTSLLISWTLPHAGRAHYYRITYGETGGNSPVQEFTVPGRGVTATISGLKPGVDYTITVYAVTVTTTKVIHYKPISINYRTEGSGCHHHHHH | –
1.9 | 3.8 | 4.6 | 0.28 | 5.8 | > 1000 | 0.24 | ATI-1338 [40K 2-branch PEG] (designed binder, 40K 2-branch PEG on the Cys of the EGSGC tail, cysteine mutant of 2987_H07) MGVSDVPRDLEVVAATPTSLLISWTLPHAGRAHYYRITYGETGGNSPVQEFTVPGRGVTATISGLKPGVDYTITVYAVTVTTTKVIHYKPISINYRTEGSGCHHHHHH | Kd [13]: 0.85 nM
– | – | – | – | – | – | – | B2 | binding result (ActRIIb-Fc (R&D Systems)): binds
